Source: US20140286957A1 (Teva, published 2014)
Where two headings read alike, the source gives them in different places. Blank lines part the entries; values can stand above or below the binder they belong to.

Assays:
[1] = target: T1, Human CD1d on cells (human, UniProt P15813 20-335); experiment: cell-based or functional assay
T1 sequence (looked up): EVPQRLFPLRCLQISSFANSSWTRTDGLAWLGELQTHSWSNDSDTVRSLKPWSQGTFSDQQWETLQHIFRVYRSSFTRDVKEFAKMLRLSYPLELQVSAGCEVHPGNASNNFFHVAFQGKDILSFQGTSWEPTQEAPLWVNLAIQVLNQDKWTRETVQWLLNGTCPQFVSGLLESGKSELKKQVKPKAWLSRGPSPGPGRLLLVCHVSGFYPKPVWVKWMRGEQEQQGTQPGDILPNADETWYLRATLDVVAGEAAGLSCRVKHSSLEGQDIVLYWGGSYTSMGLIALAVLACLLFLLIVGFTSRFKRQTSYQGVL

[2] = target: T2, Human CD1d/β2M (human, UniProt P15813 20-301; P61769 21-119); experiment: SPR
T2 construct: also called hCD1d; recombinant human CD1d

[3] = target: T1, Human CD1d on cells; experiment: cell-based or functional assay; remark: listed apart in the source
[4] = target: T1, Human CD1d on cells; experiment: cell-based or functional assay; remark: listed apart in the source
[5] = target: T1, Human CD1d on cells; experiment: cell-based or functional assay; remark: listed apart in the source
[6] = target: T1, Human CD1d on cells; experiment: cell-based or functional assay; remark: listed apart in the source
[7] = target: T2, Human CD1d/β2M; experiment: direct ELISA, plate coated with 1 µg/mL CD1d construct, HRP anti-human IgG (H+L) detection
[8] = target: T3, Mouse CD1d (mouse, UniProt P11609 22-305); experiment: as above
T3 construct: Murine CD1d extracellular domain construct, HEK-293E; also called mCD1d; murine CD1d
T3 sequence: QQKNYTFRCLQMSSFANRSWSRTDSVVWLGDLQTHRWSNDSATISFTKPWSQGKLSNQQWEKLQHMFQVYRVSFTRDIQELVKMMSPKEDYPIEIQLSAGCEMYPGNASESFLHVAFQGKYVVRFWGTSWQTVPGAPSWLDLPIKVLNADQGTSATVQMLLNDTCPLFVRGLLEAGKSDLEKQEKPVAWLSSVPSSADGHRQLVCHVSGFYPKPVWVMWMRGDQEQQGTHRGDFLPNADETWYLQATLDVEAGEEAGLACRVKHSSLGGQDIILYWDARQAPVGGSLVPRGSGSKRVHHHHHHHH

[9] = target: T4, mCD1dhu (mouse with human segments); experiment: as above
T4 chain: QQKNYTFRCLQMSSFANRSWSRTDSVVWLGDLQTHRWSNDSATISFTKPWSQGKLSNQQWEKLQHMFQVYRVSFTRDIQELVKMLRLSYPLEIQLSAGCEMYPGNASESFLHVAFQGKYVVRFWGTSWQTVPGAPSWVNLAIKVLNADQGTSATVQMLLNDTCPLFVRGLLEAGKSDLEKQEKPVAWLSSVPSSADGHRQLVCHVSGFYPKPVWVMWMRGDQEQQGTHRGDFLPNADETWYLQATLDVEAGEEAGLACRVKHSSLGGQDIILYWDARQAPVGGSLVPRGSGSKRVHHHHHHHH

[10] = target: T1, Human CD1d on cells; experiment: cell-based or functional assay; remark: listed apart in the source
[11] = target: T1, Human CD1d on cells; experiment: cell-based or functional assay; remark: listed apart in the source
[12] = target: T2, Human CD1d/β2M; experiment: direct ELISA, plate coated with 1 µg/mL human CD1d, HRP anti-human kappa detection
[13] = target: T1, Human CD1d on cells; experiment: cell-based or functional assay; remark: listed apart in the source
[14] = target: T5, hCD1dmu (human with mouse segments); experiment: direct ELISA, plate coated with 1 µg/mL CD1d construct, HRP anti-human IgG (H+L) detection
T5 chain: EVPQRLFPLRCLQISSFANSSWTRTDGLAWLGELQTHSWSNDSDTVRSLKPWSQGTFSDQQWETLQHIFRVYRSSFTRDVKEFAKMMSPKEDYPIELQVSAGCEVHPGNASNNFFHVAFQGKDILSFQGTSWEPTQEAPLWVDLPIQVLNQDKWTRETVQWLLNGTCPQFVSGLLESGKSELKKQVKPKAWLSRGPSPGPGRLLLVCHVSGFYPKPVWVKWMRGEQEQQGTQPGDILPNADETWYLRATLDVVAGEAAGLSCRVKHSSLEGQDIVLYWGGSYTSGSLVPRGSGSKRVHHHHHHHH

[15] = target: T2, Human CD1d/β2M; experiment: as above; remark: listed apart in the source
[16] = target: T3, Mouse CD1d; experiment: as above; remark: listed apart in the source
[17] = target: T4, mCD1dhu; experiment: as above
[18] = target: T2, Human CD1d/β2M; experiment: SPR, IgG captured, CD1d/β2M analyte
Description: Purified antibodies were also subjected to full kinetic characterization using a BIACORE™ T100 biosensor (GE Healthcare). Approximately 10,000 RU of anti-human IgG (Invitrogen cat# H10500) was immobilized on a CM5 Series S Sensor chip, using standard amine coupling chemistry in flow cell (FC) 1 and FC2 (or alternatively FC3 and FC4) of the BIACORE™ T100 Biosensor. The running buffer used was HBS-EP-1-(GE Healthcare) and interactions measured at 25° C. Peak purified IgGs were diluted to 10 nM in running buffer, and captured on FC2 (or alternatively FC4) at a flow rate of 10 μL/min in order to capture 50-80 RU of IgG. […] The contact time for association was 120 sec and dissociation measured for 20 mins for the highest concentration and 240 sec for all other concentrations in the series. The sensorgram data from FC2 was subtracted from FC1 and a buffer only control.

[19] = target: T6, CD1d tetramer loaded with α-GalCer (ProImmune) (UniProt P15813 20-301, limits assumed); experiment: flow cytometry, inhibition of CD1d tetramer (10 nM) binding to NKTCR on J.RT3-T3.5 cells
T6 construct: Bought reagent; also called fluorochrome-conjugated CD1d tetramer
T6 sequence (looked up): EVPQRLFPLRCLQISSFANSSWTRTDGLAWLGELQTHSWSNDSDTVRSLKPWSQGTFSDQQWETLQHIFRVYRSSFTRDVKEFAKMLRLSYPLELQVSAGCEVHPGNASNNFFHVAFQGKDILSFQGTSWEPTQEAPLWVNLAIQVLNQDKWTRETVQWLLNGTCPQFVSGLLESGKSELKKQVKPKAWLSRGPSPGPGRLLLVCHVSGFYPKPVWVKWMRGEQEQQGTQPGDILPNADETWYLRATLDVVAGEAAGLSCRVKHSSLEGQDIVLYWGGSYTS
Description: To perform the assay, antibodies were prepared at decreasing concentrations from 10 μg/mL in 0.1% bovine serum albumin (BSA) in cold 1×PBS at pH 7.4. […] Wash steps were done in 0.1% BSA in 1×PBS. Data were acquired by flow cytometry and analyzed using flow cytometry analysis software (FlowJo® Treestar, Inc.).

[20] = target: T1, Human CD1d on cells; experiment: cell-based or functional assay; remark: listed apart in the source
[21] = target: T1, Human CD1d on cells; experiment: cell-based or functional assay; remark: listed apart in the source
[22] = target: Cynomolgus macaque CD1d on cells (cynomolgus macaque); experiment: flow cytometry, biotinylated antibody and streptavidin-PE on cynomolgus PBMC, gated live cells
[23] = target: T2, Human CD1d/β2M; experiment: SPR, Protein A purified IgG
[24] = target: T1, Human CD1d on cells; experiment: cell-based or functional assay; remark: listed apart in the source

- NKT IFN-γ EC50 (moDC) [1]: 8.16 ng/mL
- NKT IL-4 EC50 (moDC) [1]: 2.19 ng/mL
- NKT IL-5 EC50 (moDC) [1]: 6.13 ng/mL
- NKT IL-13 EC50 (moDC) [1]: 9.82 ng/mL
- NKT TNF EC50 (moDC) [1]: 4.3 ng/mL
- Kd [2]: 0.189 nM
- NKT IFN-γ EC50 (moDC) [3]: 2.8 ng/mL
- NKT IL-4 EC50 (moDC) [3]: 0.432 ng/mL
- NKT IL-5 EC50 (moDC) [3]: 0.704 ng/mL
- NKT IL-13 EC50 (moDC) [3]: 0.598 ng/mL
- NKT IFN-γ EC50 (THP-1) [4]: 6.4 ng/mL
- NKT IL-4 EC50 (THP-1) [4]: 2.66 ng/mL
- NKT IL-5 EC50 (THP-1) [4]: 4.5 ng/mL
- NKT IL-13 EC50 (THP-1) [4]: 7.78 ng/mL
- NKT TNF EC50 (THP-1) [4]: 4.14 ng/mL
- NKT IL-4 EC50 (moDC) [5]: 0.58 ng/mL
- NKT IL-13 EC50 (moDC) [5]: 3.84 ng/mL
- NKT IFN-γ EC50 (THP-1) [6]: 2.6 ng/mL
- NKT IFN-γ EC50 (moDC) [6]: 3 ng/mL
- NKT IL-4 EC50 (THP-1) [6]: 2.2 ng/mL
- NKT IL-4 EC50 (moDC) [6]: 1.16 ng/mL
- NKT IL-13 EC50 (THP-1) [6]: 4.35 ng/mL
- EC50 (read off the curve) [7]: ~8 ng/mL
- binding result [8]: no binding
- EC50 (read off the curve) [9]: ~100 ng/mL
- fold improvement against 401.11 (IFN-γ, moDC) [10]: ~4.8 fold
- fold potency against antibody 42 (C24:1 βGluCer) [10]: ≤ 216 fold
- fold potency against antibody 51.1 (C24:1 βGluCer) [10]: ≤ 175 fold
- IFN-γ EC50 (C24:1 βGluCer, moDC) [11]: 0.64 ng/mL
- IL-4 EC50 (C24:1 βGluCer, moDC) [11]: 0.682 ng/mL
- IL-5 EC50 (C24:1 βGluCer, moDC) [11]: 0.868 ng/mL
- IL-13 EC50 (C24:1 βGluCer, moDC) [11]: 1.44 ng/mL
- TNF-α EC50 (C24:1 βGluCer, moDC) [11]: 0.842 ng/mL
B1: 401.11.158 (antibody, V domains shown)
VH: QVQLVGSGGGLVKPGRSLRLSCAASGFTFDDYAMHWVRQAPGKGLEWVATIIWNSAIIGYADSVKGRFIVSRDNAKNSLYLQMNSLRAEDTALYYCAKDMCSSGGCPDGYFDSWGQGTLVTVSS
VL: DIQMTQSPSSVSASVGDRVTITCRASQHISSWLAWYQQKPGKAPKLLIYAASSLQSGVPSRFSGSGSGTDFTLTISSLQPEDFATYYCQQANRFPLTFGGGTKLEIKR
notes: IgG4 (S228P); biotinylated or Pacific Blue labelled in some assays

- EC50 (read off the curve) [12]: ~60 ng/mL
B2: FAb 401.11.165 (Fab, V domains shown)
VH: EVQLVESGGGLVQPGRSLRLSCAASGFTFDDYAMHWVRQAPGKGLEWVATIIWNSAIIGYADSVKGRFIVSRDNAKNSLYLQMNSLRAEDTALYYCAKDMCSSGGCPDGYFDSWGQGTLVTVSS
VL: DIQMTQSPSSVSASVGDRVTITCRASQHISSWLAWYQQKPGKAPKLLIYAASSLQSGVPSRFSGSGSGTDFTLTISSLQPEDFATYYCQQANRFPLTFGGGTKLEIKR
notes: Made by papain digest of the IgG4

- IL-2 release EC50 (U-937 + NKTCR cell line) [13]: 4.5 ng/mL
- binding result [14]: no binding (tested: 10 µg/mL)
- EC50 (read off the curve) [15]: ~6 ng/mL
- binding result [16]: no binding (tested: 10 µg/mL)
- EC50 (read off the curve) [17]: ~5 ng/mL
- Kd [18]: 0.304 nM
- koff [18]: 0.000161 s⁻¹
- kon [18]: 530000 M⁻¹ s⁻¹
- EC50 [19]: 165 ng/mL
- IFN-γ EC50 (THP-1) [20]: 2.4 ng/mL
- IL-4 EC50 (THP-1) [20]: 1.7 ng/mL
- IL-5 EC50 (THP-1) [20]: 1.2 ng/mL
- IL-13 EC50 (THP-1) [20]: 1.5 ng/mL
- fold potency against 51.1, IL-2 release [10]: ~17 fold
- fold potency against antibody 42 (C24:1 βGluCer) [10]: ≤ 139 fold
- fold potency against antibody 42 (THP-1 assay) [10]: ≤ 180 fold
- fold potency against antibody 42 (moDC assay) [10]: ≤ 50 fold
- fold potency against antibody 42, IL-2 release [10]: ~25 fold
- fold potency against antibody 51.1 (C24:1 βGluCer) [10]: ≤ 112 fold
- IFN-γ EC50 (primary CD14+ cells) [21]: 28.6 ng/mL
- IL-4 EC50 (primary CD14+ cells) [21]: 4 ng/mL
- IL-5 EC50 (primary CD14+ cells) [21]: 6.9 ng/mL
- IL-13 EC50 (primary CD14+ cells) [21]: 39.9 ng/mL
- percent CD1d-positive cells, Donor 1 [22]: 81.3%
- percent CD1d-positive cells, Donor 2 [22]: 64%
- Kd [23]: 0.145 nM
- IFN-γ EC50 (C24:1 βGluCer, moDC) [11]: 0.995 ng/mL
- IL-4 EC50 (C24:1 βGluCer, moDC) [11]: 0.636 ng/mL
- IL-5 EC50 (C24:1 βGluCer, moDC) [11]: 0.929 ng/mL
- IL-13 EC50 (C24:1 βGluCer, moDC) [11]: 2.94 ng/mL
- TNF-α EC50 (C24:1 βGluCer, moDC) [11]: 1.51 ng/mL
- NKT IFN-γ EC50 (moDC) [24]: 0.105 ng/mL
- NKT IL-13 EC50 (moDC) [24]: 0.154 ng/mL
B3: 402.8 (antibody, V domains shown)
VH: QVQLQESGPGLVRPSETLSLTCAVYGGSFSGYYWSWIRQPPGKGLEWIGEINHSGSTNYNPSLKSRVTISVDTSKNQFSLKLSSVTAADTAVYYCARGEIYDFWNSYMDVWGKGTTVTVSS
VL: QTVVTQEPSLTVSPGGTVTLTCASSSGAVSSGNFPNWFQQKPGQAPRALIFSASNKHSWTPARFSGSLLGGKAVLTLSGVQPEDEAEYYCLLYFGDTQLGVFGGGTKVTVLG
notes: Human IgG4 (S228P); biotinylated or Pacific Blue labelled in some assays
